# Measurements taken from the nanobody polyreactivity screen of Harvey et al. (2022).
# Assay: yeast display, Sf9 membrane polyspecificity reagent, FACS + sequencing; frameworks hold sequencing errors
# Method in brief: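 A synthetic nanobody library was expressed on Saccharomyces cerevisiae BJ5465 by galactose induction for 36–48 hours. The library was stained for 1 hour at 4 °C with 10% biotinylated, detergent-solubilized Sf9 membrane reagent and enriched with streptavidin microbeads before FACS. Low and high (top ~1%) gates were set on anti-HA fluorescence for expression and streptavidin fluorescence for reagent binding, and each polyreactivity label reflects the gate of origin.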
row,Sequence,polyreactivity (PSR sort gate)
1,QVQLVESGGGLVQAGGSLRLSCAASGRTFGIYAMGWYRQAPGKERELVAAITWSGDSTYYADSVKGRFTISRDNAKNTVYLQMNSLKPEDTAVYYCAADYFGVTSVRYDYWGQGTQVTVSS,low polyreactivity
2,QVQLVESGGGLVQAGGSLRLSCAASGRTFGIYAMGWYRQAPGKEREMVAAISRGGNTYADSVKGRFTISRDNAKNTVYLQMNSLKQEDTAVYYCAAYSSYYVHRFQHYDYWGQGTQVTVSS,high polyreactivity
3,QVQLVESGGGLVQAGGSLRLSCAASGRTFGKNAMGWYRQAPGKEREFVAAITSRGGSTYYADSVKGRFTISRDNAKNTVYLQMNSLKAEDTAVYYCNREYIRPSQRTEHYYWGQGTQVTVSS,low polyreactivity
4,QVQLVESGGGLVQAGGSLRLSCAASGRTFGKNAMGWYRQAPGKEREFVAAITSRGGSTYYADSVKGRFTISRDNAKNTVYLQMNSLKPEDTAVYYCAADYYQWSTFLGVYEYDYWGQGTQVTVSS,low polyreactivity
5,QVQLVESGGGLVQAGGSLRLSCAASGRTFGKYAMGWYRQAPGKESELVAAITNSGGSTYYADSVKGRFTISRDNAKNTVYLQMNSLKPEDTAVYYCNRLGYRGPSKLNHMGYWGQGTQVTVSS,high polyreactivity
6,QVQLVESGGGLVQAGGSLRLSCAASGRTFGLNAMGWYRQAPGKERELVAAISSSGGSTYYADSVKGRFTISRDNAKNTVYLQMNSLKPEDTAVYYCAKVLYRYGTAYYYWGQGTQVTVSS,high polyreactivity
7,QVQLVESGGGLVQAGGSLRLSCAASGRTFGLYAMGWYRQAPGKERELVAAIDQSTGSTYYADSVKGRFTISRDNSKNTVYLQMNSLKQEDTAVYYCAAEEASTVRYYWYDYWGLGTQVTVSS,high polyreactivity
8,QVQLVESGGGLVQAGGSLRLSCAASGRTFGLYAMGWYRQAPGKERELVAAISWGGGRTYYADSVKGRFTISRDNAKNTVYLQMNSLKPEDTAVYYCNAVYSPRYYVGGYDYWGQGTQVTVSS,high polyreactivity
9,QVQLVESGGGLVQAGGSLRLSCAASGRTFGLYAMRWYIQAPGKERELVAAIRGSAGSTYYADSVKGRFTISRDNAKNTVYLQMNSLKPEDTAVYYCATGGYPSLWYGYGYWGQGTQVTVSS,low polyreactivity
10,QVQLVESGGGLVQAGGSLRLSCAASGRTFGLYDMGWYRQAPGKERELVAGITRRGGRTYYADSVKGRFTISRDNAKNTVYLQMNSLKPEDTAVYYGAAGTLYLRHAQSPFDYWGQGTQVTVSS,high polyreactivity
11,QVQLVESGGGLVQAGGSLRLSCAASGRTFGNNAMGWYRQAPGKERELVAAITARGSRTYYADSVKGRFTISRDNAKNTVYLQMNSLKPEDTAVYYCNAGVRRYYRSLHSIGIYYYWGQGTQVTVSS,high polyreactivity
12,QVQLVESGGGLVQAGGSLRLSCAASGRTFGNYAMGWYRQAPGTERELVASITYTVGNTYYADSVKGRFTISRDNAKNTVYIQMNSLKPEDTAVYYCAADGFYLQFYHYDYWGQGTQVTVSS,low polyreactivity
13,QVQLVESGGGLVQAGGSLRLSCAASGRTFGPYAMGWYRQAPGKEREFVAAISYSGGSTYYADSVKGRFTISRDIAKNTVYLQMNSLKPEDTAVYYCAARLPSDHRPVVRGGYEMGYWGQGTQVTVSS,low polyreactivity
14,QVQLVESGGGLVQAGGSLRLSCAASGRTFGPYAMGWYRQAPGKERELVAAISSSGSTTYYADSVKGRFTISRDNAKNTVYLQMNSLKPEDTAVYYCAKPSSRDSPYDYWGQGTQVTVSS,low polyreactivity
15,QVQLVESGGGLVQAGGSLRLSCAASGRTFGPYAMGWYRQAPGKERELVAVISGRGTSTYYADSVKGRFTISRDNAKNTVYLQMNSMKPEDTAVYYCNADYGSWYWGFDYWGQGTQVTVSS,low polyreactivity
16,QVQLVESGGGLVQAGGSLRLSCAASGRTFGPYTMGWYRQAPGKEREFVAAINSSGSRTYYADSVKGRFTISRDNAKNTVYLKINSLKPEDTGVYYCAAEAKWYYSWSYPYEGDYWGQGTQVTVSS,low polyreactivity

row,Sequence,polyreactivity (PSR sort gate)
1,QVQLVESGGGLVQAGGSLRLSCAASGRTFGQNALGWYRQAPGKERELVASIRSGGITDYADSVKGRFTISRDNAKNTVYLQMNSLKPEDTAVYYCNAEGVWWSTRYDSWGQGTQVTVSS,low polyreactivity
2,QVQLVESGGGLVQAGGSLRLSCAASGRTFGQNAMGWYRQAPGKERELVASIRSGGITDYADSVKGRFTISRDNAKNTVYLQMNSLKPDDTAVYYCNAEGVWWSTRYDSWGQGTQVTVSS,low polyreactivity
3,QVQLVESGGGLVQAGGSLRLSCAASGRTFGQYVMGWYRKAPGKERELVAAIRSGGSTYYADSVKGRFTISRDNAKNTVYLQMNSLKPEDTAVYYCAKETYYVTDNFGQVGGEMDYWGQGTQVTVSS,low polyreactivity
4,QVQLVESGGGLVQAGGSLRLSCAASGRTFGRNAMGWYRQAPGERELVAVISRGGSTYYADSVKGRFTISRDNAKNTVYLQMNSLKPEDTAVYYCNADTVYTRTAPYDYWGQGTQVTVSS,low polyreactivity
5,QVQLVESGGGLVQAGGSLRLSCAASGRTFGRNAMGWYRQAPGKERELVAAITWSGGSTYYADSVKGRFTISRDNAKNTVYLQMNSLKPEDTAVYYCAADRSRWGQGTQVTVSS,high polyreactivity
6,QVQLVESGGGLVQAGGSLRLSCAASGRTFGRNAMGWYRQAPGKERELVADISLRGGRTYYADSVKGRFTISRDNAKNTVYLQMNSLKPEDTAVYYCAAVQPVGLYPRTKYYYWGQGTQVTVSS,high polyreactivity
7,QVQLVESGGGLVQAGGSLRLSCAASGRTFGRNTMGWYRQAPGKERELVAGISRSAGRTYYADSVKGRFTISRDNAKNTVYLQMNSLKPEDTAVYYCAARYQGNYRTDKYDYWGQGTQVTVSS,high polyreactivity
8,QVQLVESGGGLVQAGGSLRLSCAASGRTFGRYAKGWYRQAPGKERELVATITSGGSTNYADSVKGRFTISRDNAKNTVYLQMNSLKPEDTAVYYCAAEFSPSRWAYSEGALRYNYWGQGTQVTVSS,low polyreactivity
9,QVQLVESGGGLVQAGGSLRLSCAASGRTFGRYALGWDRQAPGKDRELVAAISYSTDSTYYADSVKGRFTISRDNAKNTVYLQMNSLKPEDTAVYYCATDSVNVGSYVGDKHDYWGQGTQVTLSS,low polyreactivity
10,QVQLVESGGGLVQAGGSLRLSCAASGRTFGRYAMGWYRQAPGKERELVATITSGGSTNYADSVKGRFTISRDNAKNTVYLQMNSLKPEDTAVYYCAADVKRDRVWGGDYWGQGTQVTVSS,low polyreactivity
11,QVQLVESGGGLVQAGGSLRLSCAASGRTFGRYAMGWYRQAPGKERELVATITSGGSTNYADSVKGRFTISRDNAKNTVYLQMNSLKPEDTAVYYCAAEFSPSRWAYSEGALRYHYWGQGTQVTVSS,low polyreactivity
12,QVQLVESGGGLVQAGGSLRLSCAASGRTFGRYTMGWYRQAPGKERELVAAINWSGGRTYYADSVKGRFTISRDNAKNTVYLQMNSLKPEDTAVYYCNAVFANTSPEYEYWGQGTQVTVSS,high polyreactivity
13,QVQLVESGGGLVQAGGSLRLSCAASGRTFGRYVMGWYRQAPGKERQLVARIRGSTTSTYYADSVKGRFTISRDNAKNTVYLQMNSLKPEDTAVYYCAASYSPFASSYGYDYWGQGTQVTVSS,high polyreactivity
14,QVQLVESGGGLVQAGGSLRLSCAASGRTFGSKALAWYRPAPGKERELVAAITGGGSTYYADSVKGRFTISRDNAKNTVYLQMNSLKPEDTAVYYCAARGTSGWYRYGYWGQGTQVTVSS,high polyreactivity
15,QVQLVESGGGLVQAGGSLRLSCAASGRTFGSYTMGWYRQAPGKERELVAAITSGGRTNYADSVKGRFTLSRDNAKNTVYLQMTSLKPEATAVYYCAAGLRGGRYRYFAYDYWGQGTQVTVSS,high polyreactivity
